The values below come from patent publication US20260104418A1.

A word on the EC50: it is the midpoint of the concentration-response curve. A low value points to higher potency in that assay.

One assay addresses mouse CLDN18.2 (mouse) (UniProt P56857). Put plainly: FACS titration of AF647-labelled IgG on HEK293T mouse CLDN18.2 cells.
The target of assay [1] is Claudin-18.1 (CLDN18.1) (human) (UniProt P56856). The assay can be described thus: FACS titration of AF647-labelled IgG on HEK293T CLDN18.1 cells.
Sequence of Claudin-18.1 (CLDN18.1) (human) (P56856 whole entry): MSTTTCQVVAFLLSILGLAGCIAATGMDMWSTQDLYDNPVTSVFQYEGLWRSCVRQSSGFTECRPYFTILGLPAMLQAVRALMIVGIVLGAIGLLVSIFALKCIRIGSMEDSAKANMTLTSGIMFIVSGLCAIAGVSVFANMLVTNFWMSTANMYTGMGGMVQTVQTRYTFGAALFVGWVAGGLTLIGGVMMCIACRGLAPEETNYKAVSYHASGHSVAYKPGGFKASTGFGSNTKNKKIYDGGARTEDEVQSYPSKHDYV

B1: Ab 432 (antibody, V domains shown)
VH: QIQLQQSGAELARPRASVKLSCKASGYTFTSDVISWVKQRPGQGLEWIGESYLRNGNTYYNENFKGKATLTADKSSSTAYMELRSLTSEDSAVYFCARSYYGNSFAYWGQGTLVTVSA
VL: DIVMTQSPSSLTVTAREKVTMNCKSTQSLLNSGNQKNYLTWYQQKPGQPPKLLIYWASTRESGVPDRFTGSGSGTDFTLTISSVQAEDLAVYYCQNAYYYPFTFGGGTKLEIK
On to B1, for which the concentration giving a half-maximal response (EC50) in the assay with mouse CLDN18.2 (mouse) is 96.8 nM.

B2: Ab 307 (antibody, V domains shown)
VH: DVKLVESGGGLVKPGGSLKLSCAASGFTFSSYTMSWVRQTPEKRLEWVATIIIGGSYTYYPDSVKGRFTISRDNAKNTLYLQMSSLKSEDTAMYYCTRLVKGNAMDYWGQGTSVAVSS
VL: DIVMTQSPSSLTVTTGEKVTMSCKSSQSLLNSGNQKNYLSWYQQIPGQPPKLLFYWASTRESGVPDRFTGSGSGTDFTLTISNVQAEDLAVYYCQNDYSYPFTFGAGTKLELR
On to B2, for which the 50% effective concentration (EC50) with mouse CLDN18.2 (mouse) came out at 68.8 nM.

B3: Ab 360 (antibody, V domains shown)
VH: VVQLQQSGPELVKPGASVKMSCKASGYTFTSYLMHWVRQKPGLGLDWIGYINPYNDGTNYNAKFIDKATLTSDKTSSTAYMELSSLTSEDSAIYYCTRGDYWGQGTSVTVSS
VL: DIVMTQSPSSLAVTAGEQVTMSCKSSQSLLNSGNQKNYLTWYQQKPGQPPKLLIYWASIRQSGVPDRFTGSGSGTDFTLTISSVQAEDLAVYYCLNDYGFPLTFGAGTKLELK
Take B3: the concentration giving a half-maximal response (EC50) is 1760 nM in assay [1] and 57.7 nM in the assay with mouse CLDN18.2 (mouse).

B4: Ab 347 (antibody, V domains shown)
VH: EVQLQQSGPELVKPGASVKMSCKASGYTFTSYLIHWVKQKPGQGLEWIGYINPYNDATYYNEKFKAKATLTSDKSSSTAYMELSSLTSEDTAIYYCTRGDYWSQGTSVTVSS
VL: DIVMTQSPSSLTVTAGEKVTMSCKSSQSLLNSGNQKNYLTWYQQKPGQPPKLLIYWASTRQSGVPDRFTGSGSGTDFTLTISSVQAEDLTVYYCLNDYSFPLTFGAGTKLELK
B4: the values for the concentration giving a half-maximal response (EC50) (in assay [1]; in the assay with mouse CLDN18.2 (mouse)) were 1230 nM and 1350 nM, respectively.

B5: Ab 331 (antibody, V domains shown)
VH: EVQLQQSGPELVKPGASVRMSCKASGYTFTSYIMHWVKQKPGQGPEWMGYINPYNDGTNYNEKFKDKATLTSDKSSSTAYMDLSSLTSEDSAVYYCTRGDYWGQGTSVTVSS
VL: DIVMTQSPSSLTVTAGEKVTMSCKSSQSLLNSGNQKNYLTWYQQKPGQPPKLLFYWASTKKSGVPDRFTGSGSRTDFTLTISSVQAEDLAVYYCLNDYSFPLTFGAGTKLELK
For B5, the values for the EC50 (in assay [1]; in the assay with mouse CLDN18.2 (mouse)) were 1680 nM and 810 nM, respectively.

B6: Ab 301 (antibody, V domains shown)
VH: VVQLQQSGPELVKPGASVKMSCKASGYTFTSFLIHWVRQKPGLGLEWIGYINPYDYGINYNVKFMDKVTLTSDKTSSTAYMELSSLTSADSAIYYCTRGDYWGQGTSVIVSS
VL: DIVMTQSPSSLAVTTGEQVTMNCKSSQSLLNSGNQKNYLTWYQQKTGQSPKLLIYWASTRQSGVPDRFTGSGSGTDFTLTISSVQAEDLAVYYCLNDYGFPLTFGAGTKLELK
Regarding B6, the 50% effective concentration (EC50) in assay [1] is 675 nM; in the assay with mouse CLDN18.2 (mouse) it was 1610 nM.

B7: Ab 416 (antibody, V domains shown)
VH: EFQLQQSGPELVKPGASVKISCKASVYSFTGYNMNWVKQSNGKSLEWIGVINPNYGNTNYNQRFKGKATLTVDQSSSTAYMQLNSLTSEDSAVYYCARSEDYYNIRGASWGQGTLVTVSA
VL: QIVLTQSPAIMSASPGQKVTITCSASSTINYMHWYQQKLGSSPKLWIYDTSKLAPGVPARFSGSGSGTSYSLTISSMEAEDAASYFCHQWSSYPPTFGSGTKLELK
For B7, the EC50 with mouse CLDN18.2 (mouse) came to 591 nM.

B8: Ab 409 (antibody, V domains shown)
VH: QVQLQQSGAELARPGASVKLSCKASGYTFTSYGISWVKQRTGQGLEWIGEISPRSGNTYYNEKFKGKATLTADKSSSTAYMELRSLTSEDSAVYFCATGVITTVIPTDWYFDVWGTGTTVTVSS
VL: DIQMTQTTSSLSASLGDRVTISCRASQDISNYLNWYQQKPDGTVKLLIYYTSRLHSGVPSRFSGSGSGTDYSLTISNLEPEDIATYYCQHYSKLPPTFGSGTKLEIK
In the assay with mouse CLDN18.2 (mouse), B8 came in with a half-maximal effective concentration (EC50) of 1040 nM.

B9: Ab 358 (antibody, V domains shown)
VH: VVQLVESGGDFVQPGGSRKLSCAVSGFTFSSFGMHWVRQAPEKGLEWVAYISSGTTNIYYADTVKGRFTVSRDNPKNSLFLHMTSLRSEDTAMYYCVRSGYYGNSLDYWGQGTPLTVSS
VL: DIVMTQSPSSLTVTAGEKVTMSCKSSQSLFNSGNQRNYLTWYQQKPGQPPKLLIYWASTRESGVPDRFTGSGSGTGFTLTISSVQAEDLAFYYCQNVYIYPLTFGLGTKLELR
On to B9, for which the EC50 was 1520 nM in assay [1] and 40.6 nM with mouse CLDN18.2 (mouse).
